We go through one substance from patent CN114106161A.

The assay addresses SARS-CoV-2 S1蛋白 (ACRO Biosystems) (SARS-CoV-2) (UniProt P0DTC2). Put plainly: BLI, biotinylated SARS-CoV-2 S1 on SA sensor, 1:1 fit. For orientation: BLI is a label-free optical method that tracks binding on a fibre tip over time.

Turning to “针对SARS-CoV和SARS-CoV-2S1的人源抗体CR3022 (antibody)”, the Kd (in general, the concentration at which binding is half-saturated) stood at 0.0866 nM; the koff – broadly, a measure of how fast the partners let go of each other – came to 1.9e-05 s⁻¹; the kon (commonly a measure of how fast the partners come together) was found to be 220000 M⁻¹ s⁻¹.
